Measurements from patent US12065471B2, “B*44 restricted peptides for use in immunotherapy against cancers and related methods” (Immatics Biotechnologies GmbH, priority 2018, dated 2024).

How the values were obtained:
HLA-B*44:05 = HLA-B*44:05 (Homo sapiens, UniProt P01889, A223V/A65T/A93T/A95T/D201E/D98Y/E176V/E187L/E204Q/E69K/G107R/H137Y/K202T/L105A/L119I/N104T/N87E/Q56L/Q94N/R106L/R155S/R180D/S101N/S121R/S35A/S48T/T118I/V36M/W191S/Y91S); assay: MHC binding assay (UV-ligand exchange, β2m ELISA, peptide exchange yield); conditions: binding to HLA-B*44:05
In short: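 Binding is read as exchange yield, i.e. stabilized complex remaining after UV cleavage of a photolabile ligand in the presence of the candidate peptide. Streptavidin-captured monomers (100-fold dilution) are probed with HRP-anti-β2m, 1h at 37° C, TMB, A450. Standard curve: HLA-A*02:01/MLA-001 monomers at 15-500 ng/ml.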

CD8+ T cells = assay: In vitro immunogenicity: T-cell priming with aAPCs loaded with peptide/MHC and anti-CD28, pMHC multimer readout; format: cell-based, human; conditions: Table 10b, pMHC multimer readout after T-cell priming
Method: After three cycles of stimulation, the detection of peptide-reactive cells was performed by 2D multimer staining with B*44/SEQ ID NO: 469 (FIG. 3A), B*44/SEQ ID NO: 512 (FIG. 3B), B*44/SEQ ID NO: 9 (FIG. 3C), B*44/SEQ ID NO: 11 (D), B*44/SEQ ID NO: 17 (E), B*44/SEQ ID NO: 35 (F) or B*44/SEQ ID NO: 41 (FIG. 3G). Right panels (FIGS. 3A through 3G) show control staining of cells stimulated with irrelevant B*44/peptide complexes. Viable singlet cells were gated for CD8+ lymphocytes. Boolean gates helped excluding false-positive events detected with multimers specific for different peptides.
In order to obtain information regarding the immunogenicity of the TUMAPs of the present invention, the inventors performed investigations using an in vitro T-cell priming assay based on repeated stimulations of CD8+ T cells with artificial antigen presenting cells (aAPCs) loaded with peptide/MHC complexes and anti-CD28 antibody.
In order to perform in vitro stimulations by artificial antigen presenting cells loaded with peptide-MHC complex (pMHC) and anti-CD28 antibody, the inventors first isolated CD8+ T cells from fresh HLA-A*02 leukapheresis products via positive selection using CD8 microbeads (Miltenyi Biotec, Bergisch-Gladbach, Germany) of healthy donors obtained from the University clinics Mannheim, Germany, after informed consent.
PBMCs and isolated CD8+ lymphocytes were incubated in T-cell medium (TCM) until use consisting of RPMI-Glutamax (Invitrogen, Karlsruhe, Germany) supplemented with 10% heat inactivated human AB serum (PAN-Biotech, Aidenbach, Germany), 100 U/ml Penicillin/100 μg/ml Streptomycin (Cambrex, Cologne, Germany), 1 mM sodium pyruvate (CC Pro, Oberdorda, Germany), 20 μg/ml Gentamycin (Cambrex). 2.5 ng/ml IL-7 (PromoCell, Heidelberg, Germany) and 10 U/ml IL-2 (Novartis Pharma, Nümberg, Germany) were also added to the TCM at this step.
Generation of pMHC/anti-CD28 coated beads, T-cell stimulations and readout was performed in a highly defined in vitro system using four different pMHC molecules per stimulation condition and 8 different pMHC molecules per readout condition.
The purified co-stimulatory mouse IgG2a anti human CD28 Ab 9.3 (Jung et al., 1987) was chemically biotinylated using Sulfo-N-hydroxysuccinimidobiotin as recommended by the manufacturer (Perbio, Bonn, Germany). Beads used were 5.6 μm diameter streptavidin coated polystyrene particles (Bangs Laboratories, Illinois, USA).
800.000 beads/200 μl were coated in 96-well plates in the presence of 4×12.5 ng different biotin-pMHC, washed and 600 ng biotin anti-CD28 were added subsequently in a volume of 200 μl. Stimulations were initiated in 96-well plates by co-incubating 1×10^6 CD8+ T cells with 2×10^5 washed coated beads in 200 μl TCM supplemented with 5 ng/ml IL-12 (PromoCell) for 3 days at 37° C. Half of the medium was then exchanged by fresh TCM supplemented with 80 U/ml IL-2 and incubating was continued for 4 days at 37° C. This stimulation cycle was performed for a total of three times. For the pMHC multimer readout using 8 different pMHC molecules per condition, a two-dimensional combinatorial coding approach was used as previously described (Andersen et al., 2012) with minor modifications encompassing coupling to 5 different fluorochromes. Finally, multimeric analyses were performed by staining the cells with Live/dead near IR dye (Invitrogen, Karlsruhe, Germany), CD8-FITC antibody clone SK1 (BD, Heidelberg, Germany) and fluorescent pMHC multimers. For analysis, a BD LSRII SORP cytometer equipped with appropriate lasers and filters was used. Peptide specific cells were calculated as percentage of total CD8+ cells. Evaluation of multimeric analysis was done using the FlowJo software (Tree Star, Oregon, USA). In vitro priming of specific multimer+CD8+ lymphocytes was detected by comparing to negative control stimulations.

Peptide exchange (MHC class I binding score, peptide exchange yield) (HLA-B*44:05)	Substance	Wells positive [%] (CD8+ T cells)
+++ (>50 = +++)	72 (AEVGDIIKVHF; listed as Homo sapiens) [compound 72]	++ (20%-49% = ++)
++++ (>75% = ++++)	73 (GEGTLRLSW; listed as Homo sapiens) [compound 73]	++ (20%-49% = ++)
+++ (>50 = +++)	78 (TEFSNHINL; listed as Homo sapiens) [compound 78]	++ (20%-49% = ++)
+++ (>50 = +++)	79 (TEAQRLDCW; listed as Homo sapiens) [compound 79]	+ (<20% = +)
+++ (>50 = +++)	80 (TEQSLYYRQW; listed as Homo sapiens) [compound 80]	++++ (>=70% = ++++)
+++ (>50 = +++)	83 (TEGGTQKTF; listed as Homo sapiens) [compound 83]	++++ (>=70% = ++++)
+++ (>50 = +++)	420 (MEVDPIGHVY; listed as Homo sapiens) [compound 420]	+ (<20% = +)
+++ (>50 = +++)	421 (TEDYSKQAL; listed as Homo sapiens) [compound 421]	+ (<20% = +)
+++ (>50 = +++)	422 (EEAQWVRKYF; listed as Homo sapiens) [compound 422]	++++ (>=70% = ++++)
